According to publication PMC3439888 (Nucleic Acids Research, 2012):

Target: the molecule itself
Experiment: SEC

B1: Lac repressor (natural protein)
chain: MKPVTLYDVAEYAGVSYQTVSRVVNQASHVSAKTREKVEAAMAELNYIPNRVAQQLAGKQSLLIGVATSSLALHAPSQIVAAIKSRADQLGASVVVSMVERSGVEACKAAVHNLLAQRVSGLIINYPLDDQDAIAVEAACTNVPALFLDVSDQTPINSIIFSHEDGTRLGVEHLVALGHQQIALLAGPLSSVSARLRLAGWHKYLTRNQIQPIAEREGDWSAMSGFQQTMQMLNEGIVPTAMLVANDQMALGAMRAITESGLRVGADISVVGYDDTEDSSCYIPPLTTIKQDFRLLGQTSVDRLLQLSQGQAVKGNQLLPVSLVKRKTTLAPNTQTASPRALADSLMQLARQVSRLESGQ
- stoichiometry N: 4
